Measurements published in patent US9687591B2, “Building stratified biomimetic tissues and organs using crosslinked ultrashort peptide hydrogel membranes” (Agency for Science, Technology and Research, priority 2010, dated 2017).
Entries after “also recorded” stand apart in the source; their conditions may differ. Ends that are not written are not given here. Peptide text beside a SMILES is read from it.

Key:
[1] = Kinetics of disulfide formation, oxidation by air (Ellman's assay); type: physicochemical; conditions: 12 mM in water, capped tubes, room temperature, after 5 days
Experimental: For oxidation by air, LK6C dissolved in water at 12 mM was left in capped micro-centrifuge tubes at room temperature. […] H2O2-assisted oxidation was much more efficient in the formation of disulfide bridges.
(§1) For air oxidation, LK6C was dissolved in MilliQ water by vigorous vortexing for five minutes and dispensed into 20 μL aliquots. At appropriate time points, 180 μL of DTNB (Sigma, Singapore) working solution (4 mg/mL in 0.1M phosphate buffer pH 7.0) was mixed with the peptide solution for 15 minutes. Absorbance at 412 nm was then measured (InfiniteM200, Tecan, Switzerland). Using a calibration curve generated with L-cysteine (Sigma) as standard (R^2=0.999), the background-subtracted value was normalised to the reading at 0 hour to give the % of thiol remaining. For H2O2-assisted oxidation, LK6C was dissolved in water (HPLC grade, J. T. Baker, N.J., USA) containing 0.06% H2O2 (Merck, Sinagpore) and dispensed into aliquots. At appropriate time points, the aliquots were analysed using an Aquity® UPLC (Waters, USA) fitted with a single-quadrupole MS. Using a calibration curve generated with pure LK6C as standard (R^2=0.999), the area under the peak corresponding to LK6C monomer was normalised to that at 0 hour to give the % of thiol remaining.

skins of guinea pigs = test: Direct contact Kligman maximization test (GLP, ISO 10993-10); type: in vivo; conditions: GLP study by CRO Toxikon
[2] = Kinetics of disulfide formation, H2O2-assisted oxidation (UPLC); type: physicochemical; conditions: 12 mM in water containing 0.06% H2O2, after 1 day
Experimental: Only ˜50% of thiols remained after 1 day. The R^2 value of the thiol calibration curve was 1.000.
as §1

V79 = test: Direct contact V79 colony assay (GLP); type: cell-based; conditions: GLP study by CRO Toxikon
[3] = Extent of crosslinking of IVKC by UPLC; type: physicochemical; conditions: 24 hours
Experimental: The crosslinking density of IVKC could be further modulated with H2O2 content. Ultra performance liquid chromatography (UPLC) was used to study the extent of crosslinking in IVKC after oxidation with varying amount of H2O2 in PBS for 24 hours. […] At 0.2% H2O2 in PBS for instance, IVKC was 100% crosslinked and none of the monomers remained.
The crosslinking density of IVKC can be modulated with H2O2 content. Ultra performance liquid chromatography (UPLC) was used to study the extent of crosslinking in IVKC after oxidation with varying amount of H2O2 in PBS for 24 hours (FIG. 43). In the absence of H2O2, IVKC remained mostly as monomers (>96%). […] At 0.2% H2O2 in PBS for instance, IVKC was 100% cross-linked and none of the monomers remained.
The crosslinking density of Ac-IVKC was modulated by varying the concentration of H2O2 (0-0.2%). The amount of monomeric (retention time-2.40 mins) and dimeric (˜2.67 mins) species were then quantified with ultra-performance liquid chromatography (UPLC) after incubation in the various H2O2 concentration for 24 hours at room temp (FIG. 43).

[4] = Oscillation rheology of cysteine-containing peptide gels (stiffness G', LVE limit); type: physicochemical
From the text: Oscillatory rheology was used to quantify the stiffness of IVKC gels formed in the presence of varying amount of H2O2 in PBS. Elastic modulus, G′, was plotted against angular frequency, ω (FIG. 45). As already mentioned in FIG. 41, the G′ value increased tremendously after crosslinking with 0.06% H2O2 in PBS. Further increasing the amount of H2O2 increased the G′ values even more. For instance, gels cross-linked completely with 0.2% H2O2 in PBS achieved a G′ value of nearly 1 MPa. This level of stiffness was not achieved before. Hereafter, IVKC gels will be prepared in the presence of 0.2% H2O2 in PBS. Data here was reported as average of 4 samples±standard deviation.
Rheology: The rheological properties of casted gels were measured with an ARES-G2 (TA Instruments, USA) using the oscillation method. Frequency-sweep studies were performed with ω=0-100 rad/s at strain, γ=0.1%. The gel stiffness was represented by plotting G′ against ω. Amplitude-sweep studies were performed beforehand at 1 Hz with γ=0-100%. The LVE limit of the gel was defined as the value of γ when G′ first dropped below 90% of the average initial value.
The rheological properties of casted gels were measured with an ARES-G2 (TA Instruments, USA) using the oscillation method. Frequency-sweep studies were performed with ω=0-100 rad/s at strain, γ=0.1%. The gel stiffness was represented by plotting G′ against ω. […]

[5] = system: Human corneal endothelial cells (HCEC); test: Biocompatibility of cross-linked IVKC gels, calcein staining; type: cell-based; conditions: gels cross-linked with 0.2% H2O2 in PBS for 24 hours and purified
Experimental: To test the biocompatibility of cross-linked IVKC gels, a sensitive primary cell type was seeded onto the gels. IVKC gels were cross-linked with 0.2% H2O2 in PBS for 24 hours and excess H2O2 was purified from the gel using a dialysis-inspired method (as described in WO 2014/116187).
To test the biocompatibility of cross-linked IVKC gels, a sensitive primary cell type was seeded onto the gels. IVKC gels were cross-linked with 0.2% H2O2 in PBS for 24 hours and excess H2O2 was purified from the gel using a dialysis-inspired method reported previously, see e.g. WO 2014/116187. Human corneal endothelial cells (HCEC, a kind gift from Singapore Eye Research Institute) freshly derived from human donor corneas were then seeded onto the gel and maintained in culture.

[6] = Concentration needed for gelation; type: physicochemical
Experimental: FIG. 18A illustrates the determination of a suitable gelation concentration with the LK6 control peptide sequence. A working concentration was established that was suitably low so as to save on material during testing but yet, capable of forming gels strong enough to be manipulated. LK6 gels were therefore casted at different concentrations and their stiffness was measured (average±s.d. of triplicates). As expected, G′ values increased with peptide concentration and it was determined that a working concentration of 12 mM afforded gels with sufficient mechanical integrity to withstand handling.
The present invention as defined above offers significant improvements in material properties such as stiffness, elasticity and resistance of the gel to degradation compared to previous disclosures—ultra-small peptide-based and peptide/polymer-based hydrogels. Reactive chemical groups are also introduced to the peptide fibers which allow the facile in-situ chemical conjugation of biological signals. Furthermore, compared to previous formulations, less material is now needed for gelation (e.g. 10 mg/ml LK6C instead of 25 mg/ml for LK6), which translates into significant cost savings and higher water contents. This class of material is suitable for biomedical applications, for example but not limited to, three-dimensional cell culture, tissue engineering, sensing and drug and gene delivery.

[7] = Water soak of casted gels (shape retention / degradation); type: physicochemical; conditions: not oxidised, 24 hours of water soak
Experimental: Peptide was dissolved in 200 μL of water+/−H2O2 and filled into custom-made hollow ring casts (diameter ˜1 cm). The ring ends were sealed with parafilm to minimise evaporation and the cast was kept at 25° C. for 22 hours before further manipulations.
LK6 or LK6C gels were first casted and then soaked in water for various durations. […] These observations are also supported by rheological measurements (FIG. 28). Therefore, the strategy of disulfide crosslinking has increased the resistance of the gel to degradation and has made it possible to use the gel at a lower concentration compared to previous formulations. This, in turn, will translate into significant cost savings.

In the case of `CC[C@H](C)[C@H](NC(=O)[C@H](CC(C)C)NC(C)=O)C(=O)N[C@H](C(=O)N[C@@H](C)C(=O)NCC(=O)N[C@@H](CCCCN)C(=O)N[C@@H](CS)C(=O)O)C(C)C` [LK6C, LIVAGKC] (Ac-LIVAGKC-OH), the “% of thiols remaining” value [1] is reported as ~80%, the skin sensitization (skins of guinea pigs) is reported as “no sensitization” and the “% of thiols remaining” value [2] is reported as ~50%. The toxicity (V79) was “no significant toxicity”.
With Ac-IVKC the crosslinked fraction ([3]; 0.2% H2O2 in PBS) was 100%, the monomer content ([3]; absence of H2O2, PBS) was > 96% and the “increase of stiffness after oxidative crosslinking” value ([4]; 0.06% H2O2 in PBS) was “close to two orders”. The “stiffness, elastic modulus G'” value ([4]; gels crosslinked completely with 0.2% H2O2 in PBS) was ~1 MPa and the “duration cells remained viable (positive calcein staining)” value [5] was “at least ten days”.
For LIVAGK (L-form) [LK6], the “concentration needed for gelation” value [6] was 25000 µg/mL and the “gel state after water soak” value [7] was “did not survive; also recorded: completely degraded”.
